Values joined by “and” are separate entries in the source; they are usually repeats but may differ in a detail not shown here. Equal entries are not always repeated.

This note sets out measurements from patent US20260117202A1.

In test [1] the target is wild-type RSV F protein 2 before artificial mutation (RSV strain A2) (UniProt P03420). Put plainly: sandwich ELISA, AM14 coated, F at 2 µg/ml. (An ELISA detects its analyte on a solid surface through an enzyme-linked reagent.)
Test [2] concerns the target FHCS-1 (RSV strain A2) (UniProt P03420). The experiment in a line: ELISA; F coated 5000 ng/ml; stored -80° C.
For test [3], the target named is FHCS-2 (RSV strain A2) (UniProt P03420). The experiment in a line: ELISA; F coated 5000 ng/ml; stored -80° C.
Test [4] has as its target FHCS-4 (RSV strain A2) (UniProt P03420). The experiment in a line: ELISA; F coated 5000 ng/ml; stored -80° C.
Test [5] has as its target FHCS-1 (RSV strain A2) (UniProt P03420). Put plainly: ELISA; F coated 10000 ng/ml; stored -80° C.
For test [6], the target named is FHCS-2 (RSV strain A2) (UniProt P03420). The experiment in a line: ELISA; F coated 10000 ng/ml; stored -80° C.
The target in test [7] is FHCS-4 (RSV strain A2) (UniProt P03420). Put plainly: ELISA; F coated 10000 ng/ml; stored -80° C.
Test [8] addresses FHCS-1 (RSV strain A2) (UniProt P03420). The experiment in a line: ELISA; F coated 312.5 ng/ml; stored -80° C.
Test [9] shares this target. The experiment in a line: ELISA; F coated 312.5 ng/ml; stored -80° C. This is another data set of the same source.
For test [10], the target named is FHCS-2 (RSV strain A2) (UniProt P03420). The experiment in a line: ELISA; F coated 312.5 ng/ml; stored -80° C.
In test [11] the target is FHCS-4 (RSV strain A2) (UniProt P03420). The experiment in a line: ELISA; F coated 312.5 ng/ml; stored -80° C.
Test [12] deals with FHCS-1 (RSV strain A2) (UniProt P03420). Put plainly: ELISA; F coated 1250 ng/ml; stored -80° C.
Test [13] addresses FHCS-2 (RSV strain A2) (UniProt P03420). The experiment in a line: ELISA; F coated 1250 ng/ml; stored -80° C.
For test [14], the target named is FHCS-4 (RSV strain A2) (UniProt P03420). The experiment in a line: ELISA; F coated 1250 ng/ml; stored -80° C.
Test [15] addresses FHCS-2 (RSV strain A2) (UniProt P03420). The experiment in a line: ELISA; F coated 312.5 ng/ml; stored -80° C. The source holds these as a separate data set.
Test [16] has as its target FHCS-4 (RSV strain A2) (UniProt P03420). Put plainly: ELISA; F coated 312.5 ng/ml; stored -80° C. The source holds these as a separate data set.
Test [17] has as its target FHCS-1 (RSV strain A2) (UniProt P03420). The experiment in a line: ELISA; F coated 625 ng/ml; stored 37° C. 2 W.
Test [18] has as its target FHCS-2 (RSV strain A2) (UniProt P03420). The experiment in a line: ELISA; F coated 625 ng/ml; stored 37° C. 2 W.
In test [19] the target is FHCS-4 (RSV strain A2) (UniProt P03420). The experiment in a line: ELISA; F coated 625 ng/ml; stored 37° C. 2 W.
Test [20] deals with FHCS-1 (RSV strain A2) (UniProt P03420). Put plainly: ELISA; F coated 156.3 ng/ml; stored 37° C. 2 W.
Test [21] concerns the target FHCS-2 (RSV strain A2) (UniProt P03420). The experiment in a line: ELISA; F coated 156.3 ng/ml; stored 37° C. 2 W.
The target of test [22] is FHCS-4 (RSV strain A2) (UniProt P03420). Put plainly: ELISA; F coated 156.3 ng/ml; stored 37° C. 2 W.
Test [23] has as its target FHCS-1 (RSV strain A2) (UniProt P03420). The experiment in a line: ELISA; F coated 78.13 ng/ml; stored 37° C. 2 W.
Test [24] addresses FHCS-2 (RSV strain A2) (UniProt P03420). The experiment in a line: ELISA; F coated 78.13 ng/ml; stored 37° C. 2 W.
For test [25], the target named is FHCS-4 (RSV strain A2) (UniProt P03420). The experiment in a line: ELISA; F coated 78.13 ng/ml; stored 37° C. 2 W.
The target of test [26] is FHCS-1 (RSV strain A2) (UniProt P03420). The experiment in a line: ELISA; F coated 78.13 ng/ml; stored 37° C. 4 W.
The target of test [27] is FHCS-2 (RSV strain A2) (UniProt P03420). Put plainly: ELISA; F coated 78.13 ng/ml; stored 37° C. 4 W.
Test [28] concerns the target FHCS-4 (RSV strain A2) (UniProt P03420). Put plainly: ELISA; F coated 78.13 ng/ml; stored 37° C. 4 W.

As for AM14 monoclonal antibody, the OD value in test [1] is 0.01 OD; with FHCS-1 (RSV strain A2) [2], 0.158 OD and 0.167 OD; with FHCS-2 (RSV strain A2) [3], 0.203 OD and 0.382 OD; with FHCS-4 (RSV strain A2) [4], 0.404 OD and 0.294 OD; in the test with FHCS-1 (RSV strain A2) [5], 1.82 OD and 2.12 OD; with FHCS-2 (RSV strain A2) [6], 1.88 OD and 2.15 OD. For the same substance, the OD value in the test with FHCS-4 (RSV strain A2) [7] is 2.13 OD and 1.93 OD; in the test with FHCS-1 (RSV strain A2) [8], 0.004 OD and 0.008 OD; with FHCS-1 (RSV strain A2) [9], 0.003 OD and 0.006 OD; with FHCS-2 (RSV strain A2) [10], 0.007 OD; with FHCS-4 (RSV strain A2) [11], 0.008 OD and 0.006 OD.

Consider Synagis® (antibody), for which the OD value with FHCS-1 (RSV strain A2) [12] is 0.635 OD and 0.642 OD; with FHCS-2 (RSV strain A2) [13], 0.928 OD; in the test with FHCS-4 (RSV strain A2) [14], 0.321 OD and 0.328 OD; with FHCS-2 (RSV strain A2) [15], 0.109 OD and 0.097 OD; with FHCS-4 (RSV strain A2) [16], 0.032 OD and 0.028 OD; with FHCS-1 (RSV strain A2) [17], 0.123 OD and 0.125 OD. Further, the OD value with FHCS-2 (RSV strain A2) [18] was 0.211 OD and 0.227 OD; in the test with FHCS-4 (RSV strain A2) [19], 0.187 OD and 0.166 OD; with FHCS-1 (RSV strain A2) [20] it was 0.017 OD and 0.018 OD; with FHCS-2 (RSV strain A2) [21], 0.037 OD and 0.036 OD; with FHCS-4 (RSV strain A2) [22], 0.033 OD and 0.024 OD; with FHCS-1 (RSV strain A2) [23], 0.01 OD and 0.015 OD. Moreover, the OD value is 0.018 OD and 0.022 OD in the test with FHCS-2 (RSV strain A2) [24]; 0.018 OD and 0.015 OD with FHCS-4 (RSV strain A2) [25]; 0.025 OD and 0.032 OD in the test with FHCS-1 (RSV strain A2) [26]; 0.03 OD and 0.028 OD with FHCS-2 (RSV strain A2) [27]; 0.019 OD and 0.025 OD with FHCS-4 (RSV strain A2) [28].
